The data set concerns the molecule itself. Briefly: SEC; analytical gel filtration, Superdex 200 (1.0 x 30 cm), 20 mM potassium phosphate pH 6.0, 150 mM KCl, 1 mM EDTA; initial protein concentration 20 uM, 0.2 ml loaded, 0.5 ml/min; apparent molar mass from a calibration curve.

We go through one protein from paper PMC5775292, “Comprehensive reduction of amino acid set in a protein suggests the importance of prebiotic amino acids for stable proteins” (Scientific Reports, 2018).

B1: Bacillus subtilis nucleoside diphosphate kinase (enzyme, UniProt P31103 1-149, looked up)
chain: MMEKTFIMVKPDGVQRQLIGDILSRFERKGLQLAGAKLMRVTEQMAEKHYAEHQGKPFFGELVEFITSGPVFAMVWEGENVIEVTRQLIGKTNPKEALPGTIRGDYGMFVGKNIIHGSDSLESAEREINIFFKNEELVSYQQLMAGWIY
notes: nucleoside diphosphate kinase, Bacillus subtilis; construct not described; also called B. subtilis NDK; extant mesophilic NDK
As to B1, the stoichiometry N (as a rule, a count of units in the complex or per binding partner) is 6.
